Results taken from patent US20100062005A1 (University of California, published 2010).
Where two headings read alike, the source gives them in different places.

How the values were obtained:
[1] = target: T1, human ROR1 protein (human, UniProt Q01973 30-937)
[2] = target: T1, human ROR1 protein; assay: flow cytometry on CD5-negative, CD10+, CD19+ marrow B lymphocyte precursors (N=9 samples)
[3] = target: T1, human ROR1 protein; assay: flow cytometry, Alexa-647-4A5 against IgG2b isotype control, ZAP-70-negative CLL cases (N=36)
[4] = target: T1, human ROR1 protein; assay: flow cytometry, Alexa-647-4A5 against IgG2b isotype control, ZAP-70-positive CLL cases (N=33)

T1 sequence (Q01973 30-937 limits assumed): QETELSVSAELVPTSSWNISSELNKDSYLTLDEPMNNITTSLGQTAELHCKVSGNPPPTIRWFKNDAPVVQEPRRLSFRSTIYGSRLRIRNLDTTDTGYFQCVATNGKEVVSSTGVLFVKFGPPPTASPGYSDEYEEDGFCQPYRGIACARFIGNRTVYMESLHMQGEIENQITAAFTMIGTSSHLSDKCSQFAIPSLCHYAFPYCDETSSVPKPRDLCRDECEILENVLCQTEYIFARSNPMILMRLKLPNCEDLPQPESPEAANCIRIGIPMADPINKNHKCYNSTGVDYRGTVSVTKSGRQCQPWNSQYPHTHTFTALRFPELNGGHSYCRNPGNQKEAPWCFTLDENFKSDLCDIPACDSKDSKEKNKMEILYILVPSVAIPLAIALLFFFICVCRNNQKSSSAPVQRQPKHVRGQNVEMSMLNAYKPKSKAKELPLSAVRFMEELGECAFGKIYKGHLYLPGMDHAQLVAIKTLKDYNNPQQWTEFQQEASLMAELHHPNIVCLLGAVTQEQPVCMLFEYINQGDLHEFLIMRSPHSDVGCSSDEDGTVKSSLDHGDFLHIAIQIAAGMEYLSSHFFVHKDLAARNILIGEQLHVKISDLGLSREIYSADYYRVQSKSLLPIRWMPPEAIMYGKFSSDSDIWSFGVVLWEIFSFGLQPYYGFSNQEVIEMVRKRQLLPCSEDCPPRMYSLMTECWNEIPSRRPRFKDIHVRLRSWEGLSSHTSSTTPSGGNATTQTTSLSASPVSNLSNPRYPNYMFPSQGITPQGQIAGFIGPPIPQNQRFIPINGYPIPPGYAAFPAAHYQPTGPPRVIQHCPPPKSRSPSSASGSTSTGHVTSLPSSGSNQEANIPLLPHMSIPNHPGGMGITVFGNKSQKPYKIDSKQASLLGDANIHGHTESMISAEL

B1: 4A5 anti-ROR1 mAb (antibody, V domains shown)
VH: EVKLVESGGGLVKPGGSLKLSCAASGFTFSSYAMSWVRQIPEKRLEWVASISRGGTTYYPDSVKGRFTISRDNVRNILYLQMSSLRSEDTAMYYCGRYDYDGYYAMDYWGQGTSVTVSS
VL: DIKMTQSPSSMYASLGERVTITCKASPDINSYLSWFQQKPGKSPKTLIYRANRLVDGVPSRFSGGGSGQDYSLTINSLEYEDMGIYYCLQYDEFPYTFGGGTKLEMK
**Q.** B1 was tested. Which “MFI ratio (MFIR)” value [1] did it give?
**A.** 10 ratio

**Q.** What about the “MFI ratio (MFIR)” value [2] of the same binder?
**A.** 6.3 ratio

**Q.** And the “average MFIR” value [3]?
**A.** 12.4 ratio

**Q.** What about the “median MFIR” value [3] of the same binder?
**A.** 12 ratio

**Q.** And the “average MFIR” value [4]?
**A.** 12 ratio

**Q.** And the “median MFIR” value [4]?
**A.** 12.2 ratio
